The subject of data set [1] is HeLa Kyoto. Kind of data set: solubility in G1/S (NP-40 vs SDS abundance) (log2 ratio); higher = more soluble. Particulars: cell cycle stage: G1/S.
Data set [2] concerns HeLa Kyoto. The data set can be described thus: solubility change mitosis vs G1/S (difference of NP-40 vs SDS log2 ratios) (log2 ratio difference); higher = more soluble in mitosis.
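Throughout, for solubility change mitosis vs G1/S (difference of NP-40 vs SDS log2 ratios): synchronized HeLa Kyoto cells (double thymidine block for G1/S, nocodazole release for mitosis), protein amounts in NP-40 versus SDS lysates quantified by mass spectrometry, three biological replicates.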
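Throughout, for solubility in G1/S (NP-40 vs SDS abundance): HeLa Kyoto cells arrested at G1/S by double thymidine block, proteins quantified by TMT10plex mass spectrometry in mild NP-40 versus SDS extracts, three biological replicates.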

Regarding “METSSMLSSLNDECKSDNYIEPHYKEWYRVAIDILIEHGLEAYQEFLVQERVSDFLAEEEINYILKNVQKVAQSTAHGTDDSCDDTLSSGTYWPVESDVEAPNLDLGWPYVMPGLLGGTHIDLLFHPPRAHLLTIKETIRKMIKEARKVIALVMDIFTDVDIFKEIVEASTRGVSVYILLDESNFNHFLNMTEKQGCSVQRLRNIRVRTVKGQDYLSKTGAKFHGKMEQKFLLVDCQKVMYGSYSYMWSFEKAHLSMVQIITGQLVESFDEEFRTLYARSCVPSSFAQEESARVKHGKALWENGTYQHSVSSLASVSSQRNLFGRQDKIHKLDSSYFKNRGIYTLNEHDKYNIRSHGYKPHFVPNFNGPNAIRQFQPNQINENWKRHSYAGEQPETVPYLLLNRALNRTNNPPGNWKKPSDSLSVASSSREGYVSHHNTPAQSFANRLAQRKTTNLADRNSNVRRSFNGTDNHIRFLQQRMPTLEHTTKSFLRNWRIESYLNDHSEATPDSNGSALGDRFEGYDNPENLKANALYTHSRLRSSLVFKPTLPEQKEVNSCTTGSSNSTIIGSQGSETPKEVPDTPTNVQHLTDKPLPESIPKLPLQSEAPKMHTLQVPENHSVALNQTTNGHTESNNYIYKTLGVNKQTENLKNQQTENLLKRRSFPLFDNSKANLDPGNSKHYVYSTLTRNRVRQPEKPKEDLLKSSKSMHNVTHNLEEDEEEVTKRNSPSGTTTKSVSIAALLDVNKEESNKELASKKEVKGSPSFLKKGSQKLRSLLSLTPDKKENLSKNKAPAFYRLCSSSDTLVSEGEENQKPKKSDTKVDSSPRRKHSSSSNSQGSIHKSKEDVTVSPSQEINAPPDENKRTPSPGPVESKFLERAGDASAPRFNTEQIQYRDSREINAVVTPERRPTSSPRPTSSELLRSHSTDRRVYSRFEPFCKIESSIQPTSNMPNTSINRPEIKSATMGNSYGRSSPLLNYNTGVYRSYQPNENKFRGFMQKFGNFIHKNK [FAM83B]”, the “solubility in G1/S (log2)” value in the data set on HeLa Kyoto [1] was -1.47. The “solubility change mitosis (log2)” value in the data set on HeLa Kyoto [2] was found to be 0.383.

For “MEVEAAEARSPAPGYKRSGRRYKCLSCTKTFPNAPRAARHAATHGPADCSEEVAEVKPKPETEAKAEEASGEKVSGSAAKPRPYACPLCPKAYKTAPELRSHGRSHTGEKPFPCPECGRRFMQPVCLRVHLASHAGELPFRCAHCPKAYGALSKLKIHQRGHTGERPYACADCGKSFADPSVFRKHRRTHAGLRPYSCERCGKAYAELKDLRNHERSHTGERPFLCSECGKSFSRSSSLTCHQRIHAAQKPYRCPACGKGFTQLSSYQSHERTHSGEKPFLCPRCGRMFSDPSSFRRHQRAHEGVKPYHCEKCGKDFRQPADLAMHRRVHTGDRPFKCLQCDKTFVASWDLKRHALVHSGQRPFRCEECGRAFAERASLTKHSRVHSGERPFHCNACGKSFVVSSSLRKHERTHRSSEAAGVPPAQELVVGLALPVGVAGESSAAPAAGAGLGDPPAGLLGLPPESGGVMATQWQVVGMTVEHVECQDAGVREAPGPLEGAGEAGGEEADEKPPQFVCRECKETFSTMTLLRRHERSHPELRPFPCTQCGKSFSDRAGLRKHSRTHSSVRPYTCPHCPKAFLSASDLRKHERTHPVPMGTPTPLEPLVALLGMPEEGPA [ZNF668]”, the “solubility in G1/S (log2)” value in the data set on HeLa Kyoto [1] is -0.985. Besides, the “solubility change mitosis (log2)” value with HeLa Kyoto [2] was 0.453.

As to “MEVEDSGGVVLTAYHSYARAQPPNAESRCAPRAAASHPLSRKSIPRCRRINRMLSNESLHPPAFSRSNSEASVDSASMEDFWREIESIKDSSMGGQEEPPPAEVTPVDEGELEAEWLQDVGLSTLISGDEEEDGKALLSTLTRTQAAAVQKRYHTYTQTMRKKDKQSIRDVRDIFGVSESPPRDTCGNHTNQLDGTKEERELPRVIKTSGSMPDDASLNSTTLSDASQDKEGSFAVPRSDSVAILETIPVLPVHSNGSPEPGQPVQNAISDDDFLEKNIPPEAEELSFEVSYSEMVTEALKRNKLKKSEIKKEDYVLTKFNVQKTRFGLTEAGDLSAEDMKKIRHLSLIELTAFFDAFGIQLKRNKTEKVKGRDNGIFGVPLTVLLDGDRKKDPGVKVPLVLQKFFEKVEESGLESEGIFRLSGCTAKVKQYREELDAKFNADKFKWDKMCHREAAVMLKAFFRELPTSLFPVEYIPAFISLMERGPHVKVQFQALHLMVMALPDANRDAAQALMTFFNKVIANESKNRMSLWNISTVMAPNLFFSRSKHSDYEELLLANTAAHIIRLMLKYQKILWKVPSFLITQVRRMNEATMLLKKQLPSVRKLLRRKTLERETASPKTSKVLQKSPSARRMSDVPEGVIRVHAPLLSKVSMAIQLNNQTKAKDILAKFQYENSHGSSECIKIQNQRLYEIGGNIGEHCLDPDAYILDVYRINPQAEWVIKPQQSS [ARHGAP28]”, in the data set with HeLa Kyoto [1], the “solubility in G1/S (log2)” value was 0.167. Further, in the data set on HeLa Kyoto [2], the “solubility change mitosis (log2)” value is 0.00445.

Regarding “MFFYLSKKISIPNNVKLQCVSWNKEQGFIACGGEDGLLKVLKLETQTDDAKLRGLAAPSNLSMNQTLEGHSGSVQVVTWNEQYQKLTTSDENGLIIVWMLYKGSWIEEMINNRNKSVVRSMSWNADGQKICIVYEDGAVIVGSVDGNRIWGKDLKGIQLSHVTWSADSKVLLFGMANGEIHIYDNQGNFMIKMKLSCLVNVTGAISIAGIHWYHGTEGYVEPDCPCLAVCFDNGRCQIMRHENDQNPVLIDTGMYVVGIQWNHMGSVLAVAGFQKAAMQDKDVNIVQFYTPFGEHLGTLKVPGKEISALSWEGGGLKIALAVDSFIYFANIRPNYKWGYCSNTVVYAYTRPDRPEYCVVFWDTKNNEKYVKYVKGLISITTCGDFCILATKADENHPQEENEMETFGATFVLVLCNSIGTPLDPKYIDIVPLFVAMTKTHVIAASKEAFYTWQYRVAKKLTALEINQITRSRKEGRERIYHVDDTPSGSMDGVLDYSKTIQGTRDPICAITASDKILIVGRESGTIQRYSLPNVGLIQKYSLNCRAYQLSLNCNSSRLAIIDISGVLTFFDLDARVTDSTGQQVVGELLKLERRDVWDMKWAKDNPDLFAMMEKTRMYVFRNLDPEEPIQTSGYICNFEDLEIKSVLLDEILKDPEHPNKDYLINFEIRSLRDSRALIEKVGIKDASQFIEDNPHPRLWRLLAEAALQKLDLYTAEQAFVRCKDYQGIKFVKRLGKLLSESMKQAEVVGYFGRFEEAERTYLEMDRRDLAIGLRLKLGDWFRVLQLLKTGSGDADDSLLEQANNAIGDYFADRQKWLNAVQYYVQGRNQERLAECYYMLEDYEGLENLAISLPENHKLLPEIAQMFVRVGMCEQAVTAFLKCSQPKAAVDTCVHLNQWNKAVELAKNHSMKEIGSLLARYASHLLEKNKTLDAIELYRKANYFFDAAKLMFKIADEEAKKGSKPLRVKKLYVLSALLIEQYHEQMKNAQRGKVKGKSSEATSALAGLLEEEVLSTTDRFTDNAWRGAEAYHFFILAQRQLYEGCVDTALKTALHLKDYEDIIPPVEIYSLLALCACASRAFGTCSKAFIKLKSLETLSSEQKQQYEDLALEIFTKHTSKDNRKPELDSLMEGGEGKLPTCVATGSPITEYQFWMCSVCKHGVLAQEISHYSFCPLCHSPVG [WDR35]”, in the data set on HeLa Kyoto [1], the “solubility in G1/S (log2)” value is -0.261. Further, the “solubility change mitosis (log2)” value with HeLa Kyoto [2] was -0.105.

For “MFPLKDAEMGAFTFFASALPHDVCGSNGLPLTPNSIKILGRFQILKTITHPRLCQYVDISRGKHERLVVVAEHCERSLEDLLRERKPVSCSTVLCIAFEVLQGLQYMNKHGIVHRALSPHNILLDRKGHIKLAKFGLYHMTAHGDDVDFPIGYPSYLAPEVIAQGIFKTTDHMPSKKPLPSGPKSDVWSLGIILFELCVGRKLFQSLDISERLKFLLTLDCVDDTLIVLAEEHGCLDIIKELPETVIDLLNKCLTFHPSKRPTPDQLMKDKVFSEVSPLYTPFTKPASLFSSSLRCADLTLPEDISQLCKDINNDYLAERSIEEVYYLWCLAGGDLEKELVNKEIIRSKPPICTLPNFLFEDGESFGQGRDRSSLLDDTTVTLSLCQLRNRLKDVGGEAFYPLLEDDQSNLPHSNSNNELSAAATLPLIIREKDTEYQLNRIILFDRLLKAYPYKKNQIWKEARVDIPPLMRGLTWAALLGVEGAIHAKYDAIDKDTPIPTDRQIEVDIPRCHQYDELLSSPEGHAKFRRVLKAWVVSHPDLVYWQGLDSLCAPFLYLNFNNEALAYACMSAFIPKYLYNFFLKDNSHVIQEYLTVFSQMIAFHDPELSNHLNEIGFIPDLYAIPWFLTMFTHVFPLHKIFHLWDTLLLGNSSFPFCIGVAILQQLRDRLLANGFNECILLFSDLPEIDIERCVRESINLFCWTPKSATYRQHAQPPKPSSDSSGGRSSAPYFSAECPDPPKTDLSRESIPLNDLKSEVSPRISAEDLIDLCELTVTGHFKTPSKKTKSSKPKLLVVDIRNSEDFIRGHISGSINIPFSAAFTAEGELTQGPYTAMLQNFKGKVIVIVGHVAKHTAEFAAHLVKMKYPRICILDGGINKIKPTGLLTIPSPQI [TBCK]”, the “solubility in G1/S (log2)” value in the data set with HeLa Kyoto [1] was -0.278. The “solubility change mitosis (log2)” value in the data set on HeLa Kyoto [2] is -0.162.

For “MFPVKVKVEKSELEMAKARNQLDAVLQCLLEKSHMDRERLDEEAGKTPSDTHNKDCSIAATGKRPSARFPHQRRKKRREMDDGLAEGGPQRSNTYVIKLFDRSVDLAQFSENTPLYPICRAWMRNSPSVRERECSPSSPLPPLPEDEEGSEVTNSKSRDVYKLPPPTPPGPPGDACRSRIPSPLQPEMQGTPDDEPSEPEPSPSTLIYRNMQRWKRIRQRWKEASHRNQLRYSESMKILREMYERQ [LIN37]”, in the data set with HeLa Kyoto [1], the “solubility in G1/S (log2)” value came to 0.591. For the same substance, in the data set with HeLa Kyoto [2], the “solubility change mitosis (log2)” value is 0.0692.

Turning to “MFRLLSWSLGRGFLRAAGRRCRGCSARLLPGLAGGPGPEVQVPPSRVAPHGRGPGLLPLLAALAWFSRPAAAEEEEQQGADGAAAEDGADEAEAEIIQLLKRAKLSIMKDEPEEAELILHDALRLAYQTDNKKAITYTYDLMANLAFIRGQLENAEQLFKATMSYLLGGGMKQEDNAIIEISLKLASIYAAQNRQEFAVAGYEFCISTLEEKIEREKELAEDIMSVEEKANTHLLLGMCLDACARYLLFSKQPSQAQRMYEKALQISEEIQGERHPQTIVLMSDLATTLDAQGRFDEAYIYMQRASDLARQINHPELHMVLSNLAAVLMHRERYTQAKEIYQEALKQAKLKKDEISVQHIREELAELSKKSRPLTNSVKL [TTC19]”, the “solubility in G1/S (log2)” value in the data set with HeLa Kyoto [1] came out at 0.331. In the data set with HeLa Kyoto [2], the “solubility change mitosis (log2)” value turned out to be 0.00456.

In the case of MGA, the “solubility in G1/S (log2)” value in the data set on HeLa Kyoto [1] was -0.38. In addition, the “solubility change mitosis (log2)” value with HeLa Kyoto [2] is 0.233.

For the substance “MGASSSSALARLGLPARPWPRWLGVAALGLAAVALGTVAWRRAWPRRRRRLQQVGTVAKLWIYPVKSCKGVPVSEAECTAMGLRSGNLRDRFWLVIKEDGHMVTARQEPRLVLISIIYENNCLIFRAPDMDQLVLPSKQPSSNKLHNCRIFGLDIKGRDCGNEAAKWFTNFLKTEAYRLVQFETNMKGRTSRKLLPTLDQNFQVAYPDYCPLLIMTDASLVDLNTRMEKKMKMENFRPNIVVTGCDAFEEDTWDELLIGSVEVKKVMACPRCILTTVDPDTGVIDRKQPLDTLKSYRLCDPSERELYKLSPLFGIYYSVEKIGSLRVGDPVYRMV [MARC2]”, in the data set on HeLa Kyoto [1], the “solubility in G1/S (log2)” value was -0.315. In the data set on HeLa Kyoto [2], the “solubility change mitosis (log2)” value was 0.103.

In the case of “MGDDRPFVCNAPGCGQRFTNEDHLAVHKHKHEMTLKFGPARTDSVIIADQTPTPTRFLKNCEEVGLFNELASSFEHEFKKAADEDEKKAAAGPLDMSLPSTPDIKIKEEEPVEVDSSPPDSPASSPCSPPLKEKEVTPKPVLISTPTPTIVRPGSLPLHLGYDPLHPTLPSPTSVITQAPPSNRQMGSPTGSLPLVMHLANGQTMPVLPGPPVQMPSVISLARPVSMVPNIPGIPGPPVNSSGSISPSGHPIPSEAKMRLKATLTHQVSSINGGCGMVVGTASTMVTARPEQSQILIQHPDAPSPAQPQVSPAQPTPSTGGRRRRTVDEDPDERRQRFLERNRAAASRCRQKRKLWVSSLEKKAEELTSQNIQLSNEVTLLRNEVAQLKQLLLAHKDCPVTALQKKTQGYLESPKESSEPTGSPAPVIQHSSATAPSNGLSVRSAAEAVATSVLTQMASQRTELSMPIQSHVIMTPQSQSAGR [ATF7]”, the “solubility in G1/S (log2)” value in the data set on HeLa Kyoto [1] was found to be 0.504. Further, the “solubility change mitosis (log2)” value with HeLa Kyoto [2] was 0.0933.

These data come from the supplement of paper PMC5998384.
